Compound in data set [1]: CCCCCCCCCCCCCC(=S)NCCCC[C@H](NC(=O)[C@@H](NC(=O)[C@H](CCCNC(=N)N)NC(C)=O)[C@@H](C)CC)C(=O)N[C@@H](CCCNC(=N)N)C(=O)N[C@@H](Cc1ccc(O)cc1)C(N)=O
The data set can be described thus: Mixed-inhibition of recombinant human SIRT2 defatty-acylase activity assessed as substrate Km at 15 nM using varying levels of SFP3 as substrate measured at 1 min interval for 30 mins in presence of NAD+ by Michaelis-Menten plot analysis (reference value: 0.55 +/- 0.04 uM).

Compound in data set [2]: CC[C@H](C)[C@H](NC(=O)[C@H](CCCNC(=N)N)NC(C)=O)C(=O)N[C@@H](CCCCNC(=O)Cc1ccc(/N=N/c2ccc(O)cc2)cc1)C(=O)N[C@@H](CCCNC(=N)N)C(=O)N[C@@H](Cc1ccc(O)cc1)C(N)=O
Described as above.

Compound in data set [3]: CCCCCCCCCCCCCC(=S)NCCCC[C@H](NC(=O)[C@@H](NC(=O)[C@H](CCCNC(=N)N)NC(C)=O)[C@@H](C)CC)C(=O)N[C@@H](CCCNC(=N)N)C(=O)N[C@@H](Cc1ccc(O)cc1)C(N)=O
Briefly: Mixed-inhibition of recombinant human SIRT2 defatty-acylase activity assessed as substrate Km at 20 nM using varying levels of SFP3 as substrate measured at 1 min interval for 30 mins in presence of NAD+ by Michaelis-Menten plot analysis (reference value: 0.55 +/- 0.04 uM).

Compound in data set [4]: CC[C@H](C)[C@H](NC(=O)[C@H](CCCNC(=N)N)NC(C)=O)C(=O)N[C@@H](CCCCNC(=O)Cc1ccc(/N=N/c2ccc(O)cc2)cc1)C(=O)N[C@@H](CCCNC(=N)N)C(=O)N[C@@H](Cc1ccc(O)cc1)C(N)=O
The data set is described as above.

Compound in data set [5]: CCCCCCCCCCCCCC(=S)NCCCC[C@H](NC(=O)[C@@H](NC(=O)[C@H](CCCNC(=N)N)NC(C)=O)[C@@H](C)CC)C(=O)N[C@@H](CCCNC(=N)N)C(=O)N[C@@H](Cc1ccc(O)cc1)C(N)=O
Briefly: Mixed-inhibition of recombinant human SIRT2 defatty-acylase activity assessed as substrate Km at 30 nM using varying levels of SFP3 as substrate measured at 1 min interval for 30 mins in presence of NAD+ by Michaelis-Menten plot analysis (reference value: 0.55 +/- 0.04 uM).

Compound in data set [6]: CC[C@H](C)[C@H](NC(=O)[C@H](CCCNC(=N)N)NC(C)=O)C(=O)N[C@@H](CCCCNC(=O)Cc1ccc(/N=N/c2ccc(O)cc2)cc1)C(=O)N[C@@H](CCCNC(=N)N)C(=O)N[C@@H](Cc1ccc(O)cc1)C(N)=O
Described as above.

B1: NAD-dependent protein deacetylase sirtuin-2 (Homo sapiens), Q8IXJ6 (protein)
chain: MAEPDPSHPLETQAGKVQEAQDSDSDSEGGAAGGEADMDFLRNLFSQTLSLGSQKERLLDELTLEGVARYMQSERCRRVICLVGAGISTSAGIPDFRSPSTGLYDNLEKYHLPYPEAIFEISYFKKHPEPFFALAKELYPGQFKPTICHYFMRLLKDKGLLLRCYTQNIDTLERIAGLEQEDLVEAHGTFYTSHCVSASCRHEYPLSWMKEKIFSEVTPKCEDCQSLVKPDIVFFGESLPARFFSCMQSDFLKVDLLLVMGTSLQVQPFASLISKAPLSTPRLLINKEKAGQSDPFLGMIMGLGGGMDFDSKKAYRDVAWLGECDQGCLALAELLGWKKELEDLVRREHASIDAQSGAGVPNPSTSASPKKSPPPAKDEARTTEREKPQ
On to B1, for which the Km in data set [1] stood at 0.47 µM; in data set [2] it was 0.76 µM; in data set [3], 0.48 µM; in data set [4] it was 1.1 µM; in data set [5], 1.1 µM; in data set [6] it was 2.5 µM.

In general, Km refers to the substrate concentration at which the rate is half of its maximum.

The record behind these values is ChEMBL document CHEMBL4304758, “Development of Peptide-Based Sirtuin Defatty-Acylase Inhibitors Identified by the Fluorescence Probe, SFP3, That Can Efficiently Measure Defatty-Acylase Activity of Sirtuin” (J Med Chem, 2019).
